Literature values as cited in patent publication US7410776B2, “Polypeptides, their production and use” (Takeda Pharmaceutical Company Limited, priority 1997, dated 2008).

Target: T1, APJ (Homo sapiens, UniProt P35414)
T1 construct: host or cells: CHO cells
T1 sequence (P35414 1-380): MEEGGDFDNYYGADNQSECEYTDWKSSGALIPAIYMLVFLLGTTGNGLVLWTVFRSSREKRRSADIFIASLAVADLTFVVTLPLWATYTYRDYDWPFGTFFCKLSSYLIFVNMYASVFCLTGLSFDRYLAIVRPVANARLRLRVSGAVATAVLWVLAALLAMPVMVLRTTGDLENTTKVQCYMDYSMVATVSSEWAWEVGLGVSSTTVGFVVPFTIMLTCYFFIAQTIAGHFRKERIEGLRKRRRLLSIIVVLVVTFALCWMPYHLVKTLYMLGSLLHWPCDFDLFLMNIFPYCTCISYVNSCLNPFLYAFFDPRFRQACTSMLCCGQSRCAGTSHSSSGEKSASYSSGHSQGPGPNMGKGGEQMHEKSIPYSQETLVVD
Conditions: APJ expressed in CHO cells

- reaction with APJ: no reaction was detected at all
Substance: angiotensin II (DRVYIHPF; Angiotensin-2; UniProt P01019 25-32, looked up) [known peptide tested on APJ expressed in CHO cells]
